Kd, stoichiometry N and response data for five substances are collected here from PMC6695192.

Test [1] has as its target EGFP-fused ACBD3 GOLD domain (human) (UniProt Q9H3P7). Kind of test: MST; EGFP-fused GOLD domain at a constant 150 nM, GB1-fused 3A cytoplasmic domain in a series of concentrations; 30 mM Tris pH 7.4, 150 mM NaCl, 3 mM β-mercaptoethanol; Monolith NT.115.
The target of test [2] is GOLD-EVD68 3A fusion protein, wild type (human | enterovirus D68) (UniProt Q9H3P7). Kind of test: […]; 30 mM Tris pH 7.4, 150 mM NaCl, 1 mM TCEP; […].
Test [3] shares this target. Description: SEC. On the technique in general: In gel filtration, larger molecules generally elute earlier.
The target in test [4] is GOLD-3A fusion protein LVVY mutant N-terminally fused to mAmetrine or mPlum (UniProt Q9H3P7). Description: FRET by flow cytometry in HeLa cells (self-association of mAmetrine- and mPlum-fused GOLD-3A). The following applies: mean FRET signal at a fixed acceptor signal (dashed line in f, acceptor fluorescence 100 a.u.); three independent experiments; p-value = 0.004; parent: est. …; read off a plot. For orientation: In flow cytometry, cells or beads pass a laser one at a time.

The target of test [5] is GB1-fused cytoplasmic domain of the enterovirus D68 3A protein, wild type (enterovirus D68). Description: SEC.

As for “GB1-fused cytoplasmic domain of the enterovirus A71 3A protein (domain or fragment)”, the Kd in test [1] was 15 µM.

“GB1-fused cytoplasmic domain of the rhinovirus B14 3A protein (domain or fragment)” registered a Kd in test [1] of 1 µM.

Regarding “GOLD-EVD68 3A fusion protein, wild type (from UniProt Q9H3P7)”, the stoichiometry N in test [2] and in test [3] was 2 throughout.

On to “wild-type GOLD-3A fusion protein N-terminally fused to mAmetrine or mPlum (from UniProt Q9H3P7) L25A; V29A; V34A; Y37A”, for which the response in test [4] was 3.9 a.u.

Substance “GB1-fused cytoplasmic domain of the enterovirus D68 3A protein, wild type (domain or fragment)” yielded a Kd in test [1] of 1 µM. In test [5], the stoichiometry N was 2.

Broadly, the Kd is the free concentration of one partner at which half of the binding sites on the other are occupied at equilibrium, for simple one-to-one binding. The low end stands for tighter binding, the high end for weaker binding. For orientation: stoichiometry N means a count of units in the complex or per binding partner.
